Reference: patent publication US20170355769A1 (AbbVie / Abbott, published 2017)

Target: T1, Human full length B7-H3 (human, UniProt Q5ZPR3 29-534)
T1 sequence: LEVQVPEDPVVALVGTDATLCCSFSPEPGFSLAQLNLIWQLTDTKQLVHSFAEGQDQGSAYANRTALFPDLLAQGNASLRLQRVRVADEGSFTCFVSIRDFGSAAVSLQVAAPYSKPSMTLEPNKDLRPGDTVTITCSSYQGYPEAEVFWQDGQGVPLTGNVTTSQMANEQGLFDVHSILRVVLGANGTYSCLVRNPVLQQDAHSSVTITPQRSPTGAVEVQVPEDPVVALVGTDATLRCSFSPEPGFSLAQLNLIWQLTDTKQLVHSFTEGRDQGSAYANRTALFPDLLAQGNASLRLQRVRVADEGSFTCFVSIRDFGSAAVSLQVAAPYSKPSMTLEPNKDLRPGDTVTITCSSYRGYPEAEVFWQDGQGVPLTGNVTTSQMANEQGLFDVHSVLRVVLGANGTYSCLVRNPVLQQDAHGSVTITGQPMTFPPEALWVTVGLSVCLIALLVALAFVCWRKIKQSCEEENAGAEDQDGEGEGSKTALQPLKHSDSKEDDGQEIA
Test: cell-based or functional assay

B1: huAb13v1-TV (antibody, human IgG1, kappa, L234A L235A, V domains shown)
VH: EVQLQESGPGLVKPSETLSLTCAVTGYSITSGYSWHWIRQFPGNGLEWMGYIHSSGSTNYNPSLKSRISISRDTSKNQFFLKLSSVTAADTAVYYCAGYDDYFEYWGQGTTVTVSS
VL: DIQMTQSPSSLSASVGDRVTITCKASQNVGFNVAWYQQKPGKSPKALIYSASYRYSGVPSRFSGSGSGTDFTLTISSLQPEDFAEYFCQQYNWYPFTFGQGTKLEIKR
modifications: synthon TV on reduced interchain Cys
EC50 nM H1650 (tumor cell cytotoxicity): 0.43 nM

B2: huAb3v2.5-ZT (antibody, human IgG1, kappa, L234A L235A, V domains shown)
VH: EVQLVQSGAEVKKPGSSVKVSCKASGYTFSSYWMHWVRQAPGQGLEWIGLIHPESGSTNYNEMFKNRATLTVDRSTSTAYMELSSLRSEDTAVYYCAGGGRLYFDYWGQGTTVTVSS
VL: DIVMTQSPLSLPVTPGEPASISCRSSQSLVHSNRDTYLRWYLQKPGQSPQLLIYKVSNRFSGVPDRFSGSGSGTDFTLKISRVEAEDVGVYYCSQSTHVPYTFGGGTKVEIKR
modifications: synthon ZT on reduced interchain Cys
EC50 nM H1650 (tumor cell cytotoxicity): 0.95 nM

B3: huAb3v2.5-KZ (antibody, human IgG1, kappa, L234A L235A, V domains shown)
VH: EVQLVQSGAEVKKPGSSVKVSCKASGYTFSSYWMHWVRQAPGQGLEWIGLIHPESGSTNYNEMFKNRATLTVDRSTSTAYMELSSLRSEDTAVYYCAGGGRLYFDYWGQGTTVTVSS
VL: DIVMTQSPLSLPVTPGEPASISCRSSQSLVHSNRDTYLRWYLQKPGQSPQLLIYKVSNRFSGVPDRFSGSGSGTDFTLKISRVEAEDVGVYYCSQSTHVPYTFGGGTKVEIKR
modifications: synthon KZ on reduced interchain Cys
EC50 nM H1650 (tumor cell cytotoxicity): 0.87 nM

B4: huAb3v2.6-AAD (antibody, human IgG1, kappa, L234A L235A, V domains shown)
VH: EVQLVQSGAEVKKPGSSVKVSCKASGYTFSSYWMHWVRQAPGQGLEWIGLIHPESGSTNYNEMFKNRATLTVDRSTSTAYMELSSLRSEDTAVYYCAGGGRLYFDYWGQGTTVTVSS
VL: DIVMTQSPLSLPVTPGEPASISCRSSQSLVHSNQDTYLRWYLQKPGQSPQLLIYKVSNRFSGVPDRFSGSGSGTDFTLKISRVEAEDVGVYYCSQSTHVPYTFGGGTKVEIKR
modifications: synthon AAD on reduced interchain Cys
EC50 nM H1650 (tumor cell cytotoxicity): 0.85 nM

B5: huAb3v2.6-YY (antibody, human IgG1, kappa, L234A L235A, V domains shown)
VH: EVQLVQSGAEVKKPGSSVKVSCKASGYTFSSYWMHWVRQAPGQGLEWIGLIHPESGSTNYNEMFKNRATLTVDRSTSTAYMELSSLRSEDTAVYYCAGGGRLYFDYWGQGTTVTVSS
VL: DIVMTQSPLSLPVTPGEPASISCRSSQSLVHSNQDTYLRWYLQKPGQSPQLLIYKVSNRFSGVPDRFSGSGSGTDFTLKISRVEAEDVGVYYCSQSTHVPYTFGGGTKVEIKR
modifications: synthon YY on reduced interchain Cys
EC50 nM H1650 (tumor cell cytotoxicity): 0.72 nM

B6: huAb3v2.6-TV (antibody, human IgG1, kappa, L234A L235A, V domains shown)
VH: EVQLVQSGAEVKKPGSSVKVSCKASGYTFSSYWMHWVRQAPGQGLEWIGLIHPESGSTNYNEMFKNRATLTVDRSTSTAYMELSSLRSEDTAVYYCAGGGRLYFDYWGQGTTVTVSS
VL: DIVMTQSPLSLPVTPGEPASISCRSSQSLVHSNQDTYLRWYLQKPGQSPQLLIYKVSNRFSGVPDRFSGSGSGTDFTLKISRVEAEDVGVYYCSQSTHVPYTFGGGTKVEIKR
modifications: synthon TV on reduced interchain Cys
EC50 nM H1650 (tumor cell cytotoxicity): 0.52 nM

B7: huAb3v2.5-ZZ (antibody, human IgG1, kappa, L234A L235A, V domains shown)
VH: EVQLVQSGAEVKKPGSSVKVSCKASGYTFSSYWMHWVRQAPGQGLEWIGLIHPESGSTNYNEMFKNRATLTVDRSTSTAYMELSSLRSEDTAVYYCAGGGRLYFDYWGQGTTVTVSS
VL: DIVMTQSPLSLPVTPGEPASISCRSSQSLVHSNRDTYLRWYLQKPGQSPQLLIYKVSNRFSGVPDRFSGSGSGTDFTLKISRVEAEDVGVYYCSQSTHVPYTFGGGTKVEIKR
modifications: synthon ZZ on reduced interchain Cys
EC50 nM H1650 (tumor cell cytotoxicity): 1.1 nM

B8: huAb3v2.5-YG (antibody, human IgG1, kappa, L234A L235A, V domains shown)
VH: EVQLVQSGAEVKKPGSSVKVSCKASGYTFSSYWMHWVRQAPGQGLEWIGLIHPESGSTNYNEMFKNRATLTVDRSTSTAYMELSSLRSEDTAVYYCAGGGRLYFDYWGQGTTVTVSS
VL: DIVMTQSPLSLPVTPGEPASISCRSSQSLVHSNRDTYLRWYLQKPGQSPQLLIYKVSNRFSGVPDRFSGSGSGTDFTLKISRVEAEDVGVYYCSQSTHVPYTFGGGTKVEIKR
modifications: synthon YG on reduced interchain Cys
EC50 nM H1650 (tumor cell cytotoxicity): 0.71 nM

B9: huAb3v2.6-TX (antibody, human IgG1, kappa, L234A L235A, V domains shown)
VH: EVQLVQSGAEVKKPGSSVKVSCKASGYTFSSYWMHWVRQAPGQGLEWIGLIHPESGSTNYNEMFKNRATLTVDRSTSTAYMELSSLRSEDTAVYYCAGGGRLYFDYWGQGTTVTVSS
VL: DIVMTQSPLSLPVTPGEPASISCRSSQSLVHSNQDTYLRWYLQKPGQSPQLLIYKVSNRFSGVPDRFSGSGSGTDFTLKISRVEAEDVGVYYCSQSTHVPYTFGGGTKVEIKR
modifications: synthon TX on reduced interchain Cys
EC50 nM H1650 (tumor cell cytotoxicity): 0.47 nM

B10: huAb3v2.6-AAA (antibody, human IgG1, kappa, L234A L235A, V domains shown)
VH: EVQLVQSGAEVKKPGSSVKVSCKASGYTFSSYWMHWVRQAPGQGLEWIGLIHPESGSTNYNEMFKNRATLTVDRSTSTAYMELSSLRSEDTAVYYCAGGGRLYFDYWGQGTTVTVSS
VL: DIVMTQSPLSLPVTPGEPASISCRSSQSLVHSNQDTYLRWYLQKPGQSPQLLIYKVSNRFSGVPDRFSGSGSGTDFTLKISRVEAEDVGVYYCSQSTHVPYTFGGGTKVEIKR
modifications: synthon AAA on reduced interchain Cys
EC50 nM H1650 (tumor cell cytotoxicity): 1.24 nM

B11: huAb3v2.5-XW (antibody, human IgG1, kappa, L234A L235A, V domains shown)
VH: EVQLVQSGAEVKKPGSSVKVSCKASGYTFSSYWMHWVRQAPGQGLEWIGLIHPESGSTNYNEMFKNRATLTVDRSTSTAYMELSSLRSEDTAVYYCAGGGRLYFDYWGQGTTVTVSS
VL: DIVMTQSPLSLPVTPGEPASISCRSSQSLVHSNRDTYLRWYLQKPGQSPQLLIYKVSNRFSGVPDRFSGSGSGTDFTLKISRVEAEDVGVYYCSQSTHVPYTFGGGTKVEIKR
modifications: synthon XW on reduced interchain Cys
EC50 nM H1650 (tumor cell cytotoxicity): 2.18 nM

B12: huAb3v2.6-LB (antibody, human IgG1, kappa, L234A L235A, V domains shown)
VH: EVQLVQSGAEVKKPGSSVKVSCKASGYTFSSYWMHWVRQAPGQGLEWIGLIHPESGSTNYNEMFKNRATLTVDRSTSTAYMELSSLRSEDTAVYYCAGGGRLYFDYWGQGTTVTVSS
VL: DIVMTQSPLSLPVTPGEPASISCRSSQSLVHSNQDTYLRWYLQKPGQSPQLLIYKVSNRFSGVPDRFSGSGSGTDFTLKISRVEAEDVGVYYCSQSTHVPYTFGGGTKVEIKR
modifications: synthon LB on reduced interchain Cys
EC50 nM H1650 (tumor cell cytotoxicity): 2.07 nM

B13: huAb3v2.5-SE (antibody, human IgG1, kappa, L234A L235A, V domains shown)
VH: EVQLVQSGAEVKKPGSSVKVSCKASGYTFSSYWMHWVRQAPGQGLEWIGLIHPESGSTNYNEMFKNRATLTVDRSTSTAYMELSSLRSEDTAVYYCAGGGRLYFDYWGQGTTVTVSS
VL: DIVMTQSPLSLPVTPGEPASISCRSSQSLVHSNRDTYLRWYLQKPGQSPQLLIYKVSNRFSGVPDRFSGSGSGTDFTLKISRVEAEDVGVYYCSQSTHVPYTFGGGTKVEIKR
modifications: synthon SE on reduced interchain Cys
EC50 nM H1650 (tumor cell cytotoxicity): 0.85 nM

B14: huAb3v2.5-SR (antibody, human IgG1, kappa, L234A L235A, V domains shown)
VH: EVQLVQSGAEVKKPGSSVKVSCKASGYTFSSYWMHWVRQAPGQGLEWIGLIHPESGSTNYNEMFKNRATLTVDRSTSTAYMELSSLRSEDTAVYYCAGGGRLYFDYWGQGTTVTVSS
VL: DIVMTQSPLSLPVTPGEPASISCRSSQSLVHSNRDTYLRWYLQKPGQSPQLLIYKVSNRFSGVPDRFSGSGSGTDFTLKISRVEAEDVGVYYCSQSTHVPYTFGGGTKVEIKR
modifications: synthon SR on reduced interchain Cys
EC50 nM H1650 (tumor cell cytotoxicity): 0.59 nM

B15: huAb3v2.6-WD (antibody, human IgG1, kappa, L234A L235A, V domains shown)
VH: EVQLVQSGAEVKKPGSSVKVSCKASGYTFSSYWMHWVRQAPGQGLEWIGLIHPESGSTNYNEMFKNRATLTVDRSTSTAYMELSSLRSEDTAVYYCAGGGRLYFDYWGQGTTVTVSS
VL: DIVMTQSPLSLPVTPGEPASISCRSSQSLVHSNQDTYLRWYLQKPGQSPQLLIYKVSNRFSGVPDRFSGSGSGTDFTLKISRVEAEDVGVYYCSQSTHVPYTFGGGTKVEIKR
modifications: synthon WD on reduced interchain Cys
EC50 nM H1650 (tumor cell cytotoxicity): 0.79 nM
